Reference: paper PMC5419587 (Virology, 2017)

Biological target: T1, SAMD9 1-385, purified (human, UniProt Q5K651 1-385)
T1 sequence (looked up): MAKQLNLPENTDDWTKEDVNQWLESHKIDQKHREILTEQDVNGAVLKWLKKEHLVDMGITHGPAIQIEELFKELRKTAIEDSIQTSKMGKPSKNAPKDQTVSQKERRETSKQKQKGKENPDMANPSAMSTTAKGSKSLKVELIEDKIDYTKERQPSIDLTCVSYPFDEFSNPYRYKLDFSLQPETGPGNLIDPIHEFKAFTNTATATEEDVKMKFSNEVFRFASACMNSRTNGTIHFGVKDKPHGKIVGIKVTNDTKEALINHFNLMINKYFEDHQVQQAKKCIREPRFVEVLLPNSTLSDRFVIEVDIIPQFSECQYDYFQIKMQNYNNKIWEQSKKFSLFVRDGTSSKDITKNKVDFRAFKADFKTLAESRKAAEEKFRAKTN
Assay: SPR

B1: MYXV M062 protein, purified (natural protein)
chain: MGVQHKLDIFLVSEGIAIKEANLLKGDSYGCTIKIKLDKEKTFKFVIVLEPEWIDEIKPIYMKVNDESVELELDYKDAIKRIYSAEVVLCSDSVINLFSDVDVSYTCEYPTIKVNTIKKYYSVQNRGMTYVHIESPINTKDKCWFVEKNGWYEDRTHS
B1 was tested. Which Kd did it give?
Its Kd is 10 ± 5 µM.
